Our source for the Kd values is patent publication US20200040083A1.

“And” between values parts separate entries of the source, which are not always exact repeats. Identical values can stand only once.

This experiment deals with IL-2Rβ (R&D Systems, Minneapolis, Minn.) (UniProt P14784). The experiment can be described thus: Octet (BLI), AHC capture. The following applies: Fc fusion.
Chain of IL-2Rβ (R&D Systems, Minneapolis, Minn.) (P14784 27-240): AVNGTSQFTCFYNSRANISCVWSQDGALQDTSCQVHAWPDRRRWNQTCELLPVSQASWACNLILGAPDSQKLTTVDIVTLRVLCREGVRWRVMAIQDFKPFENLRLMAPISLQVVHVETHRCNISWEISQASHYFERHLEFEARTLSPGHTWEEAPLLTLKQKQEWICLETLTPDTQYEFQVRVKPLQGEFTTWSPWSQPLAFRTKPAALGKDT

As for “XENP21479 (from UniProt P0DOX5 218-449; P40933 49-162)”, the Kd (commonly the concentration at which binding is half-saturated) is 3.06 nM and 3 nM. With XENP21478 (from UniProt P0DOX5 218-449) the figure was 6.76 nM and 3 nM.
